Patent publication US20250368745A1 (published 2025)
Where a chain is given by its changes, count along the chain named. Names may count otherwise.

T1: human IL-18BP (human, UniProt O95998 31-194)
T1 construct: also called hIL-18BP; Mature Human Isoform A
T1 sequence: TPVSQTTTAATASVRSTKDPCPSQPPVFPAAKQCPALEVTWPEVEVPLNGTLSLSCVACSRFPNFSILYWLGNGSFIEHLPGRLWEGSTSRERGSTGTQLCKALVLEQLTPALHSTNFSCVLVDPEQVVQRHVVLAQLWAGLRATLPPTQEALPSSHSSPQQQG

T2: human IL-18BP (human, UniProt O95998 31-194)
T2 construct: UniProt printed as 095998; also called hIL-18BP
T2 sequence: T1 sequence

T3: cynomolgus IL-18BP (cynomolgus monkey)
T3 construct: also called cyno IL-18BP; cyIL-18BP
T3 chain: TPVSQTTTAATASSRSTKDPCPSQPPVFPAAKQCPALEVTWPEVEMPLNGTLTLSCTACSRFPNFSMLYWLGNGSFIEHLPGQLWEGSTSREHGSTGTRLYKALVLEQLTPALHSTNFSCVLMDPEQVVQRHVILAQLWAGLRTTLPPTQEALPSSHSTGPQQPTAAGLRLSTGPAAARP

B1: SA301a light chain variant V29T (antibody, V domains shown)
VH: QVQLQESGPGLVKPSQTLSLTCTVSGYSITSDYNSHWIRQPPGKGLEWIGYIHYSGSTNYNPSLKSRVTISRDTSKNQFSLKLSSVTAADTAVYYCARNYGSIYVNYFDYWGQGTLVTVSS
VL: EIVLTQSPATLSLSPGERATLSCSASSSTSYMYWYQQKPGQAPRPLIYRTSNLASGIPARFSGSGSGTDFTLTISSLEPEDFAVYYCQQYHSYPTFGGGTKVEIK
B2: SA301a light chain variant V29D (antibody, V domains shown)
VH: B1 VH
VL: B1 VL with T29D
B3: SA301a light chain variant V29A (antibody, V domains shown)
VH: B1 VH
VL: B1 VL with T29A
B4: SA301a light chain variant S30F (antibody, V domains shown)
VH: B1 VH
VL: B1 VL with T29V, S30F
B5: SA301a light chain variant V29G (antibody, V domains shown)
VH: B1 VH
VL: B1 VL with T29G
B6: SA301a light chain variant V29E (antibody, V domains shown)
VH: B1 VH
VL: B1 VL with T29E
B7: SA301a light chain variant S28M (antibody, V domains shown)
VH: B1 VH
VL: B1 VL with S28M, T29V
B8: SA301a light chain variant S28E (antibody, V domains shown)
VH: B1 VH
VL: B1 VL with S28E, T29V
B9: SA301a light chain variant S27A (antibody, V domains shown)
VH: B1 VH
VL: B1 VL with S27A, T29V
B10: SA301a light chain variant S28K (antibody, V domains shown)
VH: B1 VH
VL: B1 VL with S28K, T29V
B11: SA301a light chain variant S27G (antibody, V domains shown)
VH: B1 VH
VL: B1 VL with S27G, T29V
B12: SA301a light chain variant S27L (antibody, V domains shown)
VH: B1 VH
VL: B1 VL with S27L, T29V
B13: SA301a light chain variant V29H (antibody, V domains shown)
VH: B1 VH
VL: B1 VL with T29H
B14: SA301a light chain variant S27I (antibody, V domains shown)
VH: B1 VH
VL: B1 VL with S27I, T29V
B15: SA301a light chain variant S28T (antibody, V domains shown)
VH: B1 VH
VL: B1 VL with S28T, T29V
B16: SA301a light chain variant S28H (antibody, V domains shown)
VH: B1 VH
VL: B1 VL with S28H, T29V
B17: SA301a light chain variant S27D (antibody, V domains shown)
VH: B1 VH
VL: B1 VL with S27D, T29V
B18: SA301a light chain variant S28N (antibody, V domains shown)
VH: B1 VH
VL: B1 VL with S28N, T29V
B19: SA301a light chain variant V29P (antibody, V domains shown)
VH: B1 VH
VL: B1 VL with T29P
B20: SA301a light chain variant V29Y (antibody, V domains shown)
VH: B1 VH
VL: B1 VL with T29Y
B21: SA301a light chain variant S28F (antibody, V domains shown)
VH: B1 VH
VL: B1 VL with S28F, T29V
B22: SA301a light chain variant S28G (antibody, V domains shown)
VH: B1 VH
VL: B1 VL with S28G, T29V
B23: SA301a light chain variant S27P (antibody, V domains shown)
VH: B1 VH
VL: B1 VL with S27P, T29V
B24: SA301a light chain variant S28P (antibody, V domains shown)
VH: B1 VH
VL: B1 VL with S28P, T29V
B25: SA301a light chain variant S28D (antibody, V domains shown)
VH: B1 VH
VL: B1 VL with S28D, T29V
B26: SA301a light chain variant S27K (antibody, V domains shown)
VH: B1 VH
VL: B1 VL with S27K, T29V
B27: SA301a light chain variant S28Y (antibody, V domains shown)
VH: B1 VH
VL: B1 VL with S28Y, T29V
B28: SA301a light chain variant V29Q (antibody, V domains shown)
VH: B1 VH
VL: B1 VL with T29Q
B29: SA301a light chain variant S27H (antibody, V domains shown)
VH: B1 VH
VL: B1 VL with S27H, T29V
B30: SA301a light chain variant V29R (antibody, V domains shown)
VH: B1 VH
VL: B1 VL with T29R
B31: SA301a light chain variant S28Q (antibody, V domains shown)
VH: B1 VH
VL: B1 VL with S28Q, T29V
B32: SA301a light chain variant V29L (antibody, V domains shown)
VH: B1 VH
VL: B1 VL with T29L
B33: SA301a light chain variant S30D (antibody, V domains shown)
VH: B1 VH
VL: B1 VL with T29V, S30D
B34: SA301a light chain variant S30L (antibody, V domains shown)
VH: B1 VH
VL: B1 VL with T29V, S30L
B35: SA301a light chain variant S27M (antibody, V domains shown)
VH: B1 VH
VL: B1 VL with S27M, T29V
B36: SA301a light chain variant S27R (antibody, V domains shown)
VH: B1 VH
VL: B1 VL with S27R, T29V
B37: SA301a light chain variant V29N (antibody, V domains shown)
VH: B1 VH
VL: B1 VL with T29N
B38: SA301a light chain variant S27Q (antibody, V domains shown)
VH: B1 VH
VL: B1 VL with S27Q, T29V
B39: SA301a light chain variant V29M (antibody, V domains shown)
VH: B1 VH
VL: B1 VL with T29M
B40: SA301a light chain variant S27Y (antibody, V domains shown)
VH: B1 VH
VL: B1 VL with S27Y, T29V
B41: SA301a HC-H52N (antibody, name in Kabat numbering, V domains shown)
VH: B1 VH with H53N
VL: B1 VL with T29V
notes: IgG1 kappa
B42: SA301a HC-H52G (antibody, name in Kabat numbering, V domains shown)
VH: B1 VH with H53G
VL: B1 VL with T29V
notes: IgG1 kappa
B43: SA301a HC-H52D (antibody, name in Kabat numbering, V domains shown)
VH: B1 VH with H53D
VL: B1 VL with T29V
notes: IgG1 kappa
B44: SA301a HC-H52I (antibody, name in Kabat numbering, V domains shown)
VH: B1 VH with H53I
VL: B1 VL with T29V
notes: IgG1 kappa

biological target: T1, human IL-18BP; experiment: BLI, apparent KD, one conc.

B1 and B2 are within 1.5-fold of each other in Kd: 320 pM for the first, 430 pM for the second.

B3 and B4 are within 1.5-fold of each other in Kd: 400 pM for the first, 350 pM for the second.

B5 and B6 are within 1.5-fold of each other in Kd: 410 pM for the first, 340 pM for the second.

B7 and B8 are within 1.5-fold of each other in Kd: 510 pM for the first, 390 pM for the second.

B9 and B10 are within 1.5-fold of each other in Kd: 470 pM for the first, 510 pM for the second.

B11 and B12 are within 1.5-fold of each other in Kd: 490 pM for the first, 440 pM for the second.

B13 and B14 are within 1.5-fold of each other in Kd: 470 pM for the first, 500 pM for the second.

B15 and B16 are within 1.5-fold of each other in Kd: 430 pM for the first, 440 pM for the second.

B17 and B18 are within 1.5-fold of each other in Kd: 430 pM for the first, 450 pM for the second.

B19 and B20 are within 1.5-fold of each other in Kd: 380 pM for the first, 400 pM for the second.

B21 and B22 are within 1.5-fold of each other in Kd: 460 pM for the first, 510 pM for the second.

B23 and B24 are within 1.5-fold of each other in Kd: 450 pM for the first, 390 pM for the second.

B25 and B26 are within 1.5-fold of each other in Kd: 420 pM for the first, 520 pM for the second.

First: B27
Second: B28
The Kd of the first is 1.6-fold higher: 470 pM for the first, 300 pM for the second.

B29 and B30 are within 1.5-fold of each other in Kd: 530 pM for the first, 380 pM for the second.

B31 and B32 are within 1.5-fold of each other in Kd: 450 pM for the first, 330 pM for the second.

First: B33
Second: B34
The Kd of the first is 1.6-fold lower: 310 pM for the first, 490 pM for the second. The first binds more tightly here.

B35 and B36 are within 1.5-fold of each other in Kd: 630 pM for the first, 450 pM for the second.

B37 and B38 are within 1.5-fold of each other in Kd: 440 pM for the first, 430 pM for the second.

B39 and B40 are within 1.5-fold of each other in Kd: 350 pM for the first, 370 pM for the second.

biological target: T2, human IL-18BP; experiment: BLI, apparent KD

Going from B41 to B42, the Kd rises from 1040 pM to 1680 pM (1.6-fold).

Compared with B43, B44 is 1.5-fold higher in Kd: 350 pM for the first, 530 pM for the second.

Biological target: T3, cynomolgus IL-18BP
Experiment: BLI, apparent KD

Going from B41 to B42, the Kd falls from 2830 pM to 1660 pM (1.7-fold). The second binds more tightly here.

Compared with B43, B44 is 1.9-fold higher in Kd: 910 pM for the first, 1720 pM for the second.
